According to patent US20080089862A1 (published 2008):

Tests used:
Assay in all cases: ELISA
[1] = molecular target: peptide aptamer RB18 (MBP with C-terminal peptide […]) (Escherichia coli (strain K12), UniProt P0AEX9 29-392 = MBP)
[2] = molecular target: peptide aptamer RB17 (MBP with C-terminal peptide […]) (Escherichia coli (strain K12), UniProt P0AEX9 29-392 = MBP)
[3] = molecular target: peptide aptamer NNS8/N7 (MBP with C-terminal peptide […]) (Escherichia coli (strain K12), UniProt P0AEX9 29-392 = MBP)
[4] = molecular target: peptide aptamer RB16 (MBP with C-terminal peptide […]) (Escherichia coli (strain K12), UniProt P0AEX9 29-392 = MBP)
[5] = molecular target: peptide aptamer NNS8/N10 (MBP with C-terminal peptide […]) (Escherichia coli (strain K12), UniProt P0AEX9 29-392 = MBP)
[6] = molecular target: peptide aptamer NNS8/N5 (MBP with C-terminal peptide […]) (Escherichia coli (strain K12), UniProt P0AEX9 29-392 = MBP)
[7] = molecular target: peptide aptamer NNS8/N22 (MBP with C-terminal peptide […]) (Escherichia coli (strain K12), UniProt P0AEX9 29-392 = MBP)
[8] = molecular target: peptide aptamer RB15 (MBP with C-terminal peptide […]) (Escherichia coli (strain K12), UniProt P0AEX9 29-392 = MBP)
[9] = molecular target: peptide aptamer NNS8/N8 (MBP with C-terminal peptide […]) (Escherichia coli (strain K12), UniProt P0AEX9 29-392 = MBP)
[10] = molecular target: peptide aptamer NNS8/N23 (MBP with C-terminal peptide […]) (Escherichia coli (strain K12), UniProt P0AEX9 29-392 = MBP)
[11] = molecular target: peptide aptamer NNS8/N21 (MBP with C-terminal peptide […]) (Escherichia coli (strain K12), UniProt P0AEX9 29-392 = MBP)
[12] = molecular target: peptide aptamer RB13 (MBP with C-terminal peptide […]) (Escherichia coli (strain K12), UniProt P0AEX9 29-392 = MBP)

Measured: binding result

B1: single-chain NS3 protease (scNS3) (enzyme)
chain: GSVVIVGRIILSGRAPITAYSQQTRGLLGCIITSLTGRDKNQVEGEVQVVSTATQSFLATCVNGVCWTVYHGAGSKTLAAPKGPITQMYTNVDQDLVGWPKPPGARSLTPCTCGSSDLYLVTRHADVIPVRRRGDSRGSLLSPRPVSYLKGSSGGPLLCPFGHAVGIFRAAVCTRGVAKAVDFVPVESMETTMRS
notes: domain: NS4A cofactor peptide;domain: NS3 protease domain
no binding: all assays above
